Measurements from patent publication US20240002888A1, “RECOMBINANT MICROORGANISM COMPRISING POLYNUCLEOTIDE ENCODING TARGET PRODUCT BINDING PROTEIN FUSED TO SECRETION SIGNAL SEQUENCE, COMPOSITION COMPRISING SAME, AND METHOD FOR PRODUCING TARGET PRODUCT BY USING SAME” (KOREA RESEARCH INSTITUTE OF CHEMICAL TECHNOLOGY, priority 2020, published 2024).

Tests used:
Assay type in all cases: cell-based, Saccharomyces cerevisiae
[1] = test system: SQ strain; assay: Squalene production and secretion by SQ strains transformed with tSPF fused to a secretion signal sequence (HPLC of cell lysate and dodecane layer); conditions: for Intracellular (mg/L) / Intracellular (mg/g): squalene in cells; for Extracellular: squalene in dodecane layer
Protocol: The SQ strains transformed with the pSEC-Suc2-tSPF, pSEC-Pho5-tSPF, and pSEC-MFα-tSPF expression vectors were cultured in flask ([…]) containing 50 mL of minimal medium (e.g., YSC medium; 0.67% (w/v) yeast nitrogen base without amino acids (BD Difco, USA), 0.19% (w/v) yeast synthetic drop-out medium supplements without uracil (Sigma-Aldrich, USA)) while stirring at 250 rpm at 30° C.
After culturing for 72 hours and 144 hours, the culture was centrifuged at 4,000 rpm to be separated into cells, a culture supernatant, and a dodecane layer. Then, the concentration of squalene in the separated cells and dodecane layer was measured. To measure the squalene concentration in the cells, the cells were resuspended in 600 μL of a mixed solution containing methanol and acetone at 1:1, transferred to a tube containing lysing matrix C (glass bead, MP Biomedicals, USA), and then underwent cell lysis by using a FastPrep-24 5G homogenizer (MP Biomedicals, USA). By centrifugation at 13,000 rpm, the lysed cells and intracellular metabolites including squalene dissolved from the lysed cells were separated.
Next, the squalene concentration in the cell lysate was measured. To measure the squalene concentration in the cell lysate, the concentration was measured by using an Agilent HPLC system after filtering the cell lysate through a 0.2 μm syringe filter.
In addition, the dodecane layer separated by centrifugation was also filtered in the same way, and then the squalene concentration was measured by using an HPLC system. […] FIGS. 2A and 2B show the squalene concentrations outside the cells or in the cells, wherein the cells were produced by yeast cells including the polynucleotide encoding tSPF fused to the secretion signal sequence.

[2] = test system: SQ strain; assay: Western blot analysis of cell lysates and culture supernatant of transformed SQ strains (anti-His tag); conditions: medium without dodecane layer
Protocol: FIG. 4 is a diagram showing the results of western blot analysis of the cell lysates and the culture supernatant obtained after culturing the SQ strains that were each transformed with the Suc2-tSPF, Pho5-tSPF and MFα-tSPF fusion protein genes. To confirm the extracellular secretion of the tSPF fusion protein, yeast cells were cultured in a flask ([…]) containing 50 mL minimal medium (e.g., YSC medium; 0.67% (w/v) yeast nitrogen base without amino acids (BD Difco, USA), 0.19% (w/v) yeast synthetic drop-out medium supplements without uracil (Sigma-Aldrich, USA)) supplemented with 2% (w/v) glucose while stirring at 30° C. […] To extract intracellular proteins from the cultured yeast cells in an amount corresponding to an OD600 value of 100, the cells were resuspended 1 mL of cell lysis buffer (1 mL RIPA buffer, Thermo Scientific, MA, USA) containing protease inhibitor (1× protease inhibitor cocktail, Roche Diagnostics, Mannheim, Germany). The suspension was homogenized by using a sonicator, for 6 minutes at 20% amplitude and 3 second intervals. The extracellular proteins in the supernatant of the culture medium were added to a solution in which trichloroacetic acid solution was added to 50 mL of the supernatant to account for 25%, and incubated for 30 minutes to precipitate proteins, followed by centrifugation at 4° C. for 40 minutes. The precipitated proteins were washed three times with 1 ml of cold acetone, and then resuspended in 50 μl of sterile water. The resuspended proteins were further concentrated by using 30 kDa am icon ultra centrifugal filters.
The protein samples thus prepared, i.e. the cell lysates, were mixed with 5×SDS sample buffer and separated by 10% SDS-PAGE. The proteins separated on the SDS-PAGE gel were transferred to a PVDF membrane, and blocked by incubation for one day in TBST containing 4% skim milk. The PVDF membrane was reacted with a solution containing primary antibodies at room temperature for 1 hour, and then washed with a TBST solution three times. As the primary antibody, an anti-actin antibody or an anti-His tag antibody was used. The fusion protein included a 6×His tag sequence at the C-terminus. The washed PVDF membrane was reacted again in a solution containing peroxidase-conjugated anti-IgG antibodies at room temperature for 1 hour. The PVDF membrane in which the antibody-conjugated proteins were present was visualized by using the ChemiDoc imaging system.

[3] = test system: CEN.PK2-1D yeast cells; assay: Beta-carotene production and secretion by CEN.PK2-1D yeast cells co-transformed with p415-BC and pSEC-tSPF or pSEC-Suc2-tSPF; conditions: for Intracellular (mg/L) / Intracellular (mg/g): beta-carotene in cells; for Extracellular: beta-carotene in dodecane layer
Text: Through the same process as described in Section (1.2) of Example 1, the S. cerevisiae wild strain CEN.PK2-1D was co-transformed with the p415-BC vector manufactured in Section (1.2) and either pSEC-tSPF or pSEC-Suc2-tSPF, to manufacture yeast cells transformed with a vector expressing tSPF fused to a signal peptide.
CEN.PK2-1D yeast cells, which were co-transformed with the p415-BC vector obtained in Section (2.2) and either pSEC-tSPF or pSEC-Suc2-tSPF and were able to overproduce beta-carotene, were cultured for 144 hours under the same conditions as described in Section (1.3) of Example 1. Then, the amount of beta-carotene in the cultured cells and outside the cells was measured. The amount of beta-carotene was measured in the same method as the methods for cell lysis and dodecane layer separation used for the measurement of the squalene concentration. Table 2 and FIG. 6 show the amount of beta-carotene produced by culturing the CEN.PK2-1D yeast cells co-transformed with the p415-BC vector and either pSEC-tSPF or pSEC-Suc2-tSPF.

Molecule	amount of extracellular squalene or extracellular squalene secretion ratio compared to the control cells [1]	Intracellular (mg/L) ([1]; 72 hours)	Intracellular (mg/g) ([1]; 72 hours)	Intracellular (mg/L) ([1]; 144 hours)	Intracellular (mg/g) ([1]; 144 hours)	Extracellular ([1]; 72 hours) [mg/L]	Extracellular ([1]; 144 hours) [mg/L]	western blot band in cell lysate [2]	amount of extracellular beta-carotene or ratio of extracellular secretion compared to control cells [3]	extracellular secretion of beta-carotene, increase compared to the control groups containing the empty vector ([3]; 144 hours)	Intracellular (mg/L) ([3]; 144 hours)	Intracellular (mg/g) ([3]; 144 hours)	Extracellular ([3]; 144 hours) [mg/L]	western blot band in culture supernatant ([2]; culture supernatant)
MFα-tSPF: fusion protein of MFα signal peptide at N-terminus of tSPF (SEQ ID NO: 25), expressed in yeast from pSEC-MFα-tSPF (protein, MF-tSPF) MRFPSIFTAVLFAASSALAAPVNTTTEDETAQIPAEAVIGYSDLEGDFDVAVLPFSNSTNNGLLFINTTIASIAAKEEGVSLEKREAEAMEFSGRVGDLSPRQKEALAKFRENVQDVLPALPNPDDYFLLRWLRARSFDLQKSEAMLRKHVEFRKQKDIDNIISWQPPEVIQQYLSGGMCGYDLDGCPVWYDIIGPLDAKGLLFSASKQDLLRTKMRECELLLQECAHQTTKLGRKVETITAIYDCEGLGLKHLWKPAVEAYGEALCMFEENYPETLKRLFVVKAPKLFPVAYNLIKPFLSEDTRKKIMVLGANWKEVLLKHISPDQVPVEYGGTMTDPDGNPKCKSKINYGGDIPRKYYVRDQVK	significant increase	210.52	44.88	551.64	78.42	4.21	43.25	–	–	–	–	–	–	–
Pho5-tSPF: fusion protein of Pho5 signal peptide at N-terminus of tSPF (SEQ ID NO: 24), expressed in yeast from pSEC-Pho5-tSPF (protein, Pho5-SPF) MFKSVVYSILAASLANAMEFSGRVGDLSPRQKEALAKFRENVQDVLPALPNPDDYFLLRWLRARSFDLQKSEAMLRKHVEFRKQKDIDNIISWQPPEVIQQYLSGGMCGYDLDGCPVWYDIIGPLDAKGLLFSASKQDLLRTKMRECELLLQECAHQTTKLGRKVETITAIYDCEGLGLKHLWKPAVEAYGEALCMFEENYPETLKRLFVVKAPKLFPVAYNLIKPFLSEDTRKKIMVLGANWKEVLLKHISPDQVPVEYGGTMTDPDGNPKCKSKINYGGDIPRKYYVRDQVK	significant increase	252.17	51.68	426.85	72.39	64.55	190.09	hardly appeared	–	–	–	–	–	–
Suc2-tSPF: fusion protein of Suc2 signal peptide at N-terminus of tSPF (SEQ ID NO: 23), expressed in yeast from pSEC-Suc2-tSPF (protein, Suc2-tSPF) MLLQAFLFLLAGFAAKISAMEFSGRVGDLSPRQKEALAKFRENVQDVLPALPNPDDYFLLRWLRARSFDLQKSEAMLRKHVEFRKQKDIDNIISWQPPEVIQQYLSGGMCGYDLDGCPVWYDIIGPLDAKGLLFSASKQDLLRTKMRECELLLQECAHQTTKLGRKVETITAIYDCEGLGLKHLWKPAVEAYGEALCMFEENYPETLKRLFVVKAPKLFPVAYNLIKPFLSEDTRKKIMVLGANWKEVLLKHISPDQVPVEYGGTMTDPDGNPKCKSKINYGGDIPRKYYVRDQVK	significant increase	476.9	89.61	557.03	97.93	166.62	226.51	hardly appeared	significantly increased	about 23 fold	7.65	0.82	1.4	–
tSPF: truncated supernatant protein factor, amino acids 1 to 275 of SPF (SEQ ID NO: 2), without secretion signal; control expressed from pSEC-tSPF (protein, truncated SPF) MSGRVGDLSPRQKEALAKFRENVQDVLPALPNPDDYFLLRWLRARSFDLQKSEAMLRKHVEFRKQKDIDNIISWQPPEVIQQYLSGGMCGYDLDGCPVWYDIIGPLDAKGLLFSASKQDLLRTKMRECELLLQECAHQTTKLGRKVETITIIYDCEGLGLKHLWKPAVEAYGEFLCMFEENYPETLKRLFVVKAPKLFPVAYNLIKPFLSEDTRKKIMVLGANWKEVLLKHISPDQVPVEYGGTMTDPDGNPKCKSKINYGGDIPRKYYVRDQVK	–	401.51	55.05	485.04	59.43	3.67	13.82	apparent band	–	–	7.04	0.69	0.23	did not appear
